Reference: the supplement of paper PMC9170038

Legend:
[1] = system: MS2 coat protein; assay: apparent KD of MS2 coat protein, switch OFF state (with FMN for OFF switches, without FMN for ON switches); designed switch direction (-1 OFF switch, 1 ON switch): 1; higher = weaker reporter binding; conditions: FMN input: 0 or 200 uM; Eterna round: R93 (includes R88 designs)
In short: (§1)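 Apparent KD was obtained for each design as the median of normalised binding-curve fits over its clusters. RNA switches transcribed on-chip from Illumina sequencing clusters were titrated with SNAP-549-labelled MS2 coat protein (twofold steps, 0.7 or 1.5 nM to 3 µM) in 100 mM Tris-HCl pH 7.5, 80 mM KCl, 4 mM MgCl2, without or with constant ligand.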

[2] = system: MS2 coat protein; assay: apparent KD of MS2 coat protein, switch ON state; designed switch direction (-1 OFF switch, 1 ON switch): 1; higher = weaker reporter binding; conditions: FMN input: 0 or 200 uM; Eterna round: R93 (includes R88 designs)
In short: as §1

AUAAAACAUGAGGAUCACCCAUGUAGAAAUAUGGGAGGAUAUACAAAGACGAAAGUCGAAGUAGAAGGCCUAAAAG [Mat - Same State 1 - Meechl mod - D117]
apparent KD of MS2 coat protein [1]: 68.3 nM | apparent KD of MS2 coat protein [2]: 27.4 nM

AUAUAUAUAAGGUAGGAUAUCCAAAAGUCCACAUGAGGAUCACCCAUGUAAAGAAAGAAAAAAUGGGAGAAGGACCAUAUAUAUA [77%, More Tesla, 5]
apparent KD of MS2 coat protein [1]: 42.1 nM | apparent KD of MS2 coat protein [2]: 18.7 nM

AGAAAUAAAAGAGAGGAUAUCCAAAAGAAAACAUGAGGAUCACCCAUGUAGACGAAAGUCAAAUGGGAGAAGGCUCAAAAUAAAG [80% More Helter Skelter 2 + Hairpin]
apparent KD of MS2 coat protein [1]: 98.7 nM | apparent KD of MS2 coat protein [2]: 61.4 nM

GCGAAUAUGGGUUAGGAUAUGCGCGCAUGUACAUGAGGAUCACCCAUGUUUACGGGCGCCUUUGAGCAGAAGGAGCUAAUCAACGC [SameState2Try2_Neo]
apparent KD of MS2 coat protein [1]: 24.2 nM | apparent KD of MS2 coat protein [2]: 21.5 nM

CAUCAUGCGCCUAAGGAUAUGUCUCACAAGACAUGAGGAUCACCCAUGUAGACAAAAUAAGCGAUGCAGAAGGUGGAGCGCAUGC [Rasoer]
apparent KD of MS2 coat protein [1]: 348 nM | apparent KD of MS2 coat protein [2]: 83.1 nM

GGAGUACAUGAGGAUCACCCAUGUUGGAACGAAGUAGGAUAUGUACAAUAUUAAAUAAAAACAGAAGGACUAAUAA [Meow]
apparent KD of MS2 coat protein [1]: 55.1 nM | apparent KD of MS2 coat protein [2]: 30.4 nM

GAAAAACAUGAGGAUCACCCAUGUAGAAAUAUGGGAGGAUAUACAAAGUGGAAAGACAAAGUAGAAGGCCUAAAAG [Garnet 25]
apparent KD of MS2 coat protein [1]: 309 nM | apparent KD of MS2 coat protein [2]: 35.6 nM

AAAAAACAUGAGGAUCACCCAUGUAGAAACAUGGGAGGAUAUACAAAGACGAAAGUCAAAGUAGAAGGCCUAAGAA [Mat - Same State 1 - Mod - D166]
apparent KD of MS2 coat protein [1]: 58.2 nM | apparent KD of MS2 coat protein [2]: 81.8 nM

GAAAAACAUGAGGAUCACCCAUGUGAGAACAUGGGAGGAUAUACGAGGACGAAAGUCAAAGUAGAAGGCCUAAGAG [Garnet 86]
apparent KD of MS2 coat protein [1]: 30 nM | apparent KD of MS2 coat protein [2]: 164 nM

AAGAAACAUGAGGAUCACCCAUGUAAGAUAAACACAGGAUAUGCGAAAGAAAUAAAUAAAGCAGAAGGGUGAAGAA [Mat - Same State 1 - Tesla mod - D148]
apparent KD of MS2 coat protein [1]: 44.5 nM | apparent KD of MS2 coat protein [2]: 22.4 nM

AAGAAACAUGAGGAUCACCCAUGUAGAAAUAUGGGAGGAUAUACGAAGACGAAAGUCGAAGUAGAAGGCCUAAGAA [Mat - Same State 1 - Meechl mod - D131]
apparent KD of MS2 coat protein [1]: 71.9 nM | apparent KD of MS2 coat protein [2]: 15.1 nM

AAAAAACAUGAGGAUCACCCAUGUAAUAAAACGUCAGGAUAUUGAUUUUAUUAUUUAUUGCGAGAAGGGACAAAAA [Same State 1 - Omei 3]
apparent KD of MS2 coat protein [1]: 28.6 nM | apparent KD of MS2 coat protein [2]: 20.2 nM

AGGAGACAUGAGGAUCACCCAUGUGAGAAGAGGCGAGGAUAUCGAAAGAAAGAAGAGAAACGAGAAGGCGCGAGUU [salish99-SS1-022]
apparent KD of MS2 coat protein [1]: 33.8 nM | apparent KD of MS2 coat protein [2]: 25.5 nM

AAAAAAAAAAGUGAGGAUAUGUGAUCGGUGACAUGAGGAUCACCCAUGUGAGGCCUUCGGGCCAAGCAGAAGGUAUAAAAAAAAA [Same State 2-VII]
apparent KD of MS2 coat protein [1]: 29.4 nM | apparent KD of MS2 coat protein [2]: 105 nM

CAUCAUGCGCCUAAGGAUAUGUCUCACAAGACAUGAGGAUCACCCAUGUAUAAUAAAUAAAUGAUGCAGAAGGUGGAGUGCAUGC [Latibe]
apparent KD of MS2 coat protein [1]: 245 nM | apparent KD of MS2 coat protein [2]: 87.7 nM

AGGAAACAUGAGGAUCACCCAUGUAAAAAUAUGGGAGGAUAUGCGAAAAGAAACAAAGAAGCAGAAGGCCUAAGAA [75%, Ex5 sub 1, 7]
apparent KD of MS2 coat protein [1]: 155 nM | apparent KD of MS2 coat protein [2]: 11.9 nM

AAAGUACAUGAGGAUCACCCAUGUUGAAAAAAUCGAGGAUAUGCGAAAAAAAAAAAAAAAGCAGAAGGUGAAAAAA [I 'NO' this state well 2]
apparent KD of MS2 coat protein [1]: 38.6 nM | apparent KD of MS2 coat protein [2]: 24.4 nM

AAAAAAAAAAGCUAGGAUAUCCAAAAAAAAACAUGAGGAUCACCCAUGUAAAAAAAAAAAAAAUGGGAGAAGGAGCAAAAAAAAAA [Mod of Eli]
apparent KD of MS2 coat protein [1]: 39.6 nM | apparent KD of MS2 coat protein [2]: 28.5 nM

AGGAGACAUGAGGAUCACCCAUGUGAGAAGAGGCGAGGAUAUCGAAAAAAAAAAAAAAAACGAGAAGGCGCGAGAA [salish99-SS1-002]
apparent KD of MS2 coat protein [1]: 58.2 nM | apparent KD of MS2 coat protein [2]: 35.4 nM

CCCAAUGCAACGAAGGAUAUCCGUCAUGCCACAUGAGGAUCACCCAUGUACUGGCGGCACAAGACGGAGAAGGUCGGGUGCUGUG [Quenrean]
apparent KD of MS2 coat protein [1]: 11 nM | apparent KD of MS2 coat protein [2]: 9.4 nM

UUAAGCCGCGGGCAGGAUAUGUAUUAAAAUACAUGAGGAUCACCCAUGUGCAGGUGUAACACCUGACAGAAGGGCCAAUCGCAGC [Ceanreerqu]
apparent KD of MS2 coat protein [1]: 228 nM | apparent KD of MS2 coat protein [2]: 26.4 nM

AAAAAACAUGAGGAUCACCCAUGUCGAAAGACAUGAGGAUAUGUGUGGAAACCAUACUAUACAGAAGGCAUAAAAA [SS1 - 1009]
apparent KD of MS2 coat protein [1]: 66.1 nM | apparent KD of MS2 coat protein [2]: 82.6 nM

AUCUAACAUGAGGAUCACCCAUGUAUUCAAAAACAAGGAUAUAUAACAAACAAACAACAAAUAGAAGGUGUAAAUA [Default title]
apparent KD of MS2 coat protein [1]: 19.6 nM | apparent KD of MS2 coat protein [2]: 19 nM

AGCCGCACUAUACAGGAUAUCACAAUAUCGACAUGAGGAUCACCCAUGUGACUGGCACCAGUCGGUGAGAAGGGUGAAGUGCGGC [Raarati]
apparent KD of MS2 coat protein [1]: 421 nM | apparent KD of MS2 coat protein [2]: 90.6 nM

CAACAGAGAGGACAGGAUAUGUCGUGAUAAACAUGAGGAUCACCCAUGUGAGACAUCACGUAGUCGCAGAAGGGUCCCGUCUUAC [Esleerandi]
apparent KD of MS2 coat protein [1]: 18.8 nM | apparent KD of MS2 coat protein [2]: 15.3 nM

GAAAAACAUGAGGAUCACCCAUGUGGAAAUAUGGGAGGAUAUACAAAGACGUAAGUCAAAGUAGAAGGCCUAAAAG [Garnet 94]
apparent KD of MS2 coat protein [1]: 177 nM | apparent KD of MS2 coat protein [2]: 30.8 nM

GAAAAACAUGAGGAUCACCCAUGUGGAAAUAUGGGAGGAUAUACAAAGACGAAAGUCAAAGUAGAAGGCCUAAAAG [Mat - Same State 1 - Eli mod - D4]
apparent KD of MS2 coat protein [1]: 111 nM | apparent KD of MS2 coat protein [2]: 18.2 nM

AAAAAACAUGAGGAUCACCCAUGUGAAAAAAUCGCAGGAUAUCCCUUUUUUAAAUGGGAGGGAGAAGGGUGAAAAA [Nob's Hobby 15 - Jieux - Same State 1]
apparent KD of MS2 coat protein [1]: 84.7 nM | apparent KD of MS2 coat protein [2]: 40.3 nM

UAAAAACAUGAGGAUCACCCAUGUGAGAACAUGGGAGGAUAUACAAGGACGAAAGUCAAAGUAGAAGGCCUAAAAU [Mat - Same State 1 - Mod - D176]
apparent KD of MS2 coat protein [1]: 29.3 nM | apparent KD of MS2 coat protein [2]: 99.8 nM

AUAAAUAAAAUAGAGGAUAUCCAAAACAAAACAUGAGGAUCACCCAUGUAAAAGAAAAUAAAAUGGGAGAAGGCUACAAAUAAAU [SS2 M 3]
apparent KD of MS2 coat protein [1]: 30.5 nM | apparent KD of MS2 coat protein [2]: 20.1 nM

AGAAAAUAUGGGUAGGAUAUAUAAAGAGAAACAUGAGGAUCACCCAUGUAAAGACGAGAGUCAAAAUAGAAGGACUAAAGAAAGAA [Meechl MS2 SS2 2]
apparent KD of MS2 coat protein [1]: 151 nM | apparent KD of MS2 coat protein [2]: 86.2 nM

AGGAGACAUGAGGAUCACCCAUGUGAGAAGAGGCGAGGAUAUCGAAAAAAAAAAAAAAAACGAGAAGGCGCGAGAA [SameState1]
apparent KD of MS2 coat protein [1]: 58.2 nM | apparent KD of MS2 coat protein [2]: 35.4 nM

AUAAAACAUGAGGAUCACCCAUGUAGAAAUAUGGGAGGAUAUACUAGAUCGAAAGAUCUAGUAGAAGGCCUUAAAG [JL Mod of Eli 3]
apparent KD of MS2 coat protein [1]: 52.6 nM | apparent KD of MS2 coat protein [2]: 31.7 nM

GGAGCCGGCACUGAGGAUAUUCAUAUUAAAACAUGAGGAUCACCCAUGUAGGCCAGAAGGCCUUGGGAGAAGGCAGGUCGACUCG [Diqureveri]
apparent KD of MS2 coat protein [1]: 288 nM | apparent KD of MS2 coat protein [2]: 20.8 nM

AUAAAUAAAAUCGAGGAUAUCCAAUAAUAAACAUGAGGAUCACCCAUGUAAAAGAAAAUAUAAUGGGAGAAGGCGAAUAAUAAAU [JR_SS002_Sub1701]
apparent KD of MS2 coat protein [1]: 20 nM | apparent KD of MS2 coat protein [2]: 16.3 nM

AAUAUAUUAUUUAAGGAUAUCAUAGGAAACACAUGAGGAUCACCCAUGUGGGAGACUUGGACGGGUGAGAAGGUGGAUAAUAUAU [Samwise Clockwise 37 - Jieux - Same State 2]
apparent KD of MS2 coat protein [1]: 20.7 nM | apparent KD of MS2 coat protein [2]: 19.2 nM

AAGAAACAUGAGGAUCACCCAUGUCGAGAGAGACGAGGAUAUCUGAAUCGAUUAGAUUACGGAGAAGGCGUGAAAA [Same State 1.2 (Same State of Confusion2 - minimal change )]
apparent KD of MS2 coat protein [1]: 30.4 nM | apparent KD of MS2 coat protein [2]: 18.3 nM

GGAUACAUACAGAAGGAUAUGAGAACAAAGACAUGAGGAUCACCCAUGUACAAAAGGUGGAACAAUCAGAAGGUCUAAACAACAAA [Club and Ball]
apparent KD of MS2 coat protein [1]: 52.1 nM | apparent KD of MS2 coat protein [2]: 57.6 nM

AGGAAACAUGAGGAUCACCCAUGUAGAAAUAUGGGAGGAUAUCGGAAUAAAAUAAAGAAACGAGAAGGCCUAAAAG [59%, Flamingo, 3]
apparent KD of MS2 coat protein [1]: 324 nM | apparent KD of MS2 coat protein [2]: 38.8 nM

AAAAAAAAAGUAGAGGAUAUCCGAGUGGUAACAUGAGGAUCACCCAUGUGAAGAAAGGAAGAUGAGGAGAAGGCUACAAAAAAAAA [Mat - Mod of Nando]
apparent KD of MS2 coat protein [1]: 42.2 nM | apparent KD of MS2 coat protein [2]: 21.2 nM

GAACCACAUGAGGAUCACCCAUGUCUAAGAAUGGGAGGAUAUGCACAAAAGGAAAUAACUGCAGAAGGCCUACGAA [62%, Redo, 2]
apparent KD of MS2 coat protein [1]: 129 nM | apparent KD of MS2 coat protein [2]: 23.2 nM

ACAAAACAUGAGGAUCACCCAUGUCAAGCUAAUCAAGGAUAUGGGAGCGGUCCGGUGCGAUCAGAAGGUGAUUAGA [Gecelear]
apparent KD of MS2 coat protein [1]: 53.2 nM | apparent KD of MS2 coat protein [2]: 99 nM

GAAAAACAUGAGGAUCACCCAUGUAGAGAUAUGGGAGGAUAUACGAAGACGAAAGACGAGGUAGAAGGCCUAAAAG [Garnet 57]
apparent KD of MS2 coat protein [1]: 218 nM | apparent KD of MS2 coat protein [2]: 66.1 nM
